Numbering of substitutions follows the chain as printed. Numbers in names are those of the source.
Legend:
Experiment in all cases: BLI; biotinylated CD123 ECD wt and variants captured on streptavidin biosensors; IL-3 as analyte, 500 to 7.8 nM in PBS pH7.4; association 300 s; steady-state analysis
Settings in all cases: both partners purified
[1] = biological target: T1, CD123 wt ECD (amino acids 19–305), soluble protein (human, UniProt P26951 19-305, biotinylated (Biotinylation kit Type B) in the IL-3 BLI only)
T1 construct: human CD123 extracellular domain (ECD; amino acids 19–305); also called wt CD123; source: produced and purified by Icosagen
T1 sequence (looked up): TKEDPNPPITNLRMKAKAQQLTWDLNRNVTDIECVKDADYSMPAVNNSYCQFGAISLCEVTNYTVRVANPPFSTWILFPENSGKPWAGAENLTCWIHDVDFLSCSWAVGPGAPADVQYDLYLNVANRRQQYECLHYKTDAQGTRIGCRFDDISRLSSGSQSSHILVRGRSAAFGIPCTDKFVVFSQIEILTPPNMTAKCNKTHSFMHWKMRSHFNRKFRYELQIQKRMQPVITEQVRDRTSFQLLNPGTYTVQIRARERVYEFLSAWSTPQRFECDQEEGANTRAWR

[2] = biological target: T2, CD123 E51T ECD (amino acids 19–305), soluble protein (human, UniProt P26951 19-305, E51T, biotinylated (Biotinylation kit Type B) in the IL-3 BLI only)
T2 construct: human CD123 extracellular domain (ECD; amino acids 19–305); source: produced and purified by Icosagen
T2 sequence (looked up): T1 sequence (looked up) with E33T

[3] = biological target: T3, CD123 E51K ECD (amino acids 19–305), soluble protein (human, UniProt P26951 19-305, E51K, biotinylated (Biotinylation kit Type B) in the IL-3 BLI only)
T3 construct: human CD123 extracellular domain (ECD; amino acids 19–305); source: produced and purified by Icosagen
T3 sequence (looked up): T1 sequence (looked up) with E33K

[4] = biological target: T4, CD123 S59P ECD (amino acids 19–305), soluble protein (human, UniProt P26951 19-305, S59P, biotinylated (Biotinylation kit Type B) in the IL-3 BLI only)
T4 construct: human CD123 extracellular domain (ECD; amino acids 19–305); source: produced and purified by Icosagen
T4 sequence (looked up): T1 sequence (looked up) with S41P

[5] = biological target: T5, CD123 S59E ECD (amino acids 19–305), soluble protein (human, UniProt P26951 19-305, S59E, biotinylated (Biotinylation kit Type B) in the IL-3 BLI only)
T5 construct: human CD123 extracellular domain (ECD; amino acids 19–305); source: produced and purified by Icosagen
T5 sequence (looked up): T1 sequence (looked up) with S41E

[6] = biological target: T6, CD123 S59F ECD (amino acids 19–305), soluble protein (human, UniProt P26951 19-305, S59F, biotinylated (Biotinylation kit Type B) in the IL-3 BLI only)
T6 construct: human CD123 extracellular domain (ECD; amino acids 19–305); source: produced and purified by Icosagen
T6 sequence (looked up): T1 sequence (looked up) with S41F

[7] = biological target: T7, CD123 S59R ECD (amino acids 19–305), soluble protein (human, UniProt P26951 19-305, S59R, biotinylated (Biotinylation kit Type B) in the IL-3 BLI only)
T7 construct: human CD123 extracellular domain (ECD; amino acids 19–305); source: produced and purified by Icosagen
T7 sequence (looked up): T1 sequence (looked up) with S41R

[8] = biological target: T8, CD123 R84E ECD (amino acids 19–305), soluble protein (human, UniProt P26951 19-305, R84E, biotinylated (Biotinylation kit Type B) in the IL-3 BLI only)
T8 construct: human CD123 extracellular domain (ECD; amino acids 19–305); source: produced and purified by Icosagen
T8 sequence (looked up): T1 sequence (looked up) with R66E

[9] = biological target: T9, CD123 S59Y ECD (amino acids 19–305), soluble protein (human, UniProt P26951 19-305, S59Y, biotinylated (Biotinylation kit Type B) in the IL-3 BLI only)
T9 construct: human CD123 extracellular domain (ECD; amino acids 19–305); source: produced and purified by Icosagen
T9 sequence (looked up): T1 sequence (looked up) with S41Y

[10] = biological target: T10, CD123 E51A ECD (amino acids 19–305), soluble protein (human, UniProt P26951 19-305, E51A, biotinylated (Biotinylation kit Type B) in the IL-3 BLI only)
T10 construct: human CD123 extracellular domain (ECD; amino acids 19–305); source: produced and purified by Icosagen
T10 sequence (looked up): T1 sequence (looked up) with E33A

[11] = biological target: T11, CD123 E51Q ECD (amino acids 19–305), soluble protein (human, UniProt P26951 19-305, E51Q, biotinylated (Biotinylation kit Type B) in the IL-3 BLI only)
T11 construct: human CD123 extracellular domain (ECD; amino acids 19–305); source: produced and purified by Icosagen
T11 sequence (looked up): T1 sequence (looked up) with E33Q

[12] = biological target: T12, CD123 R84T ECD (amino acids 19–305), soluble protein (human, UniProt P26951 19-305, R84T, biotinylated (Biotinylation kit Type B) in the IL-3 BLI only)
T12 construct: human CD123 extracellular domain (ECD; amino acids 19–305); source: produced and purified by Icosagen
T12 sequence (looked up): T1 sequence (looked up) with R66T

[13] = biological target: T13, CD123 R84Q ECD (amino acids 19–305), soluble protein (human, UniProt P26951 19-305, R84Q, biotinylated (Biotinylation kit Type B) in the IL-3 BLI only)
T13 construct: human CD123 extracellular domain (ECD; amino acids 19–305); source: produced and purified by Icosagen
T13 sequence (looked up): T1 sequence (looked up) with R66Q

binding result [1]: binds
binding result [2]: binds
binding result [3]: binds
binding result [4]: binds
binding result [5]: binds
binding result [6]: binds
binding result [7]: binds
binding result [8]: binds
binding result [9]: binds
binding result [10]: binds
binding result [11]: binds
binding result [12]: binds
binding result [13]: binds
B1: IL-3 (ligand, human, UniProt P08700 20-152, looked up)
chain: APMTQTTPLKTSWVNCSNMIDEIITHLKQPPLPLLDFNNLNGEDQDILMENNLRRPNLEAFNRAVKSLQNASAIESILKNLLPCLPLATAAPTRHPIHIKDGDWNEFRRKLTFYLKTLENAQAQQTTLSLAIF
notes: human interleukin-3, recombinant, Sino Biological PN 11858-H08H; also called interleukin-3; human IL-3; source: bought: Sino Biological (PN 11858-H08H)
